How the values were obtained:
[1] = system: primary human hepatocytes; assay: IL-11 treatment of primary human hepatocytes: ALT in supernatant, actin stress fibres; format: cell-based; conditions: IL-11 0.019-10 ng/ml, 24 h
Protocol: IL-11 mediated hepatocyte cell death was measured by determining the levels of alanine transaminase (ALT) in hepatocyte supernatant after treatment with a range of IL-11 doses (0.019-10 ng/ml). ALT levels were measured using ALT Activity Assay Kit (ab105134, Abcam) according to the manufacturer's protocol. Concurrent number of stress fibres 24 h after IL-11 stimulation was detected by rhodamine-phalloidin staining.

[2] = system: primary human hepatocytes; assay: IL11 stimulation of primary human hepatocytes: ERK, JNK, CASP3, PI staining; format: cell-based
From the text: PI^+ve cells were quantified with the flow cytometer (Fortessa, BD Biosciences) and analyzed with FlowJo version 7 software (TreeStar).

human hepatocytes = assay: rhIL11 versus rmIL11 on human hepatocytes; format: cell-based; conditions: 10 ng ml^-1
mouse hepatocytes = format: cell-based; conditions: 24 h
From the text: Mouse hepatocytes (ABC-TC3928, AcceGen Biotech) were maintained in mouse hepatocyte medium (ABC-TM3928, AcceGen Biotech) supplemented with 1% Penicillin-streptomycin.

[3] = system: primary human hepatocytes; assay: IL11 effect on GSH and NOX4 in primary human hepatocytes; format: cell-based
[4] = system: primary human hepatocytes; assay: IL11 stimulation of primary human hepatocytes with sgp130 or sIL11Rα; format: cell-based; conditions: IL11 0.625 ng/ml to 20 ng/ml
liver = conditions: single subcutaneous injection 500 μg kg^-1
Protocol: (A) Effect of recombinant human IL11 (rhIL11, 10 ng ml^−1) or recombinant mouse IL11 (rmIL11, 10 ng ml^−1) on ERK, JNK and CASP3 activation status in mouse hepatocytes. (B) ALT levels in mouse hepatocyte supernatant following stimulation by rmIL11 (10 ng ml^−1) or by increasing doses of rhIL11 (1, 5, 10, 15 and 20 ng ml^−1). (C) Schematic of mice receiving a single subcutaneous injection of either saline, rhIL11, or rmIl11 (500 μg kg^−1). (D) Western blot analysis of hepatic p-ERK, p-JNK, and Cl. […] Dose-dependent inhibition effect of rhIL11 on rmIL11-induced (K) ALT secretion and (L) CASP3 activation by mouse hepatocytes. (A, B, K, L) 24 h. (B, K) Data are shown as mean±SD; (E, G) Data are shown as box-and-whisker with median (middle line), 25th-75th percentiles (box), and minimum-maximum values (whiskers). (B, K) Two-tailed, Tukey-corrected Student's t-test; (E) two-tailed Student's t-test; (G) two-tailed Dunnett's test.
The levels of alanine transaminase (ALT) or aspartate aminotransferase (AST) in mouse serum and hepatocyte supernatant were measured using ALT Activity (ab105134, Abcam) or AST (ab105135, Abcam) Assay Kits. […] All colorimetric assays were performed according to the manufacturer's protocol.
Western blots were carried out from hepatocyte and liver tissue lysates. […] Protein concentrations were determined by Bradford assay (Bio-Rad). […]

hIL11Rα = biological target: T1, hIL11Rα (Homo sapiens, UniProt Q14626); conditions: rhIL11:hIL11Rα, reported previously, reconfirmed; cited from earlier work
T1 construct: purchased SinoBiological 10252-H08H
T1 sequence (Q14626 23-422): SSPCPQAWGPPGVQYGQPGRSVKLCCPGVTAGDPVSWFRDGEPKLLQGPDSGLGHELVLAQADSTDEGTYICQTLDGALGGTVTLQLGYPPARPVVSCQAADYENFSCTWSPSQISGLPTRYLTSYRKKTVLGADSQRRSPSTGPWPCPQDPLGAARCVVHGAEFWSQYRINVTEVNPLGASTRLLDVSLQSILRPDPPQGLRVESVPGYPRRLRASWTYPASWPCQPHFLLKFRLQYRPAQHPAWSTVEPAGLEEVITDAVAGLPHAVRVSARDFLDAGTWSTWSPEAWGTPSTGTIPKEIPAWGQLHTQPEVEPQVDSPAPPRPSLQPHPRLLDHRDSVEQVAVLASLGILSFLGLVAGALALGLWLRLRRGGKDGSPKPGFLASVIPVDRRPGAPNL

IL-11Rα = conditions: low affinity; cited from earlier work
mouse livers = conditions: 500 μg/kg, IV prior to WI/Rp injury; cited from earlier work
IRI = conditions: 500 μg/kg, IP one hour prior to IRI; cited from earlier work
[5] = system: LPS-induced hepatic injury (acute endotoxemia); conditions: 150 μg/kg, IP; cited from earlier work
[6] = system: early intestinal radiation injury; conditions: 2 mg/kg/d from 2 days prior until 2 weeks after irradiation; cited from earlier work
[7] = system: epithelial cell integrity; conditions: oral 0.5 mg/kg/day, 12 days; cited from earlier work
small intestinal mucosa = conditions: 250 μg/kg; cited from earlier work
[8] = system: clonogenic cells in intestinal crypts; conditions: 100 μg/kg, SC prior to and after cytotoxic exposure; cited from earlier work
heart [9] = conditions: 20 μg/kg, IV at the start of reperfusion; cited from earlier work
heart [10] = conditions: 8 μg/kg, IV 24 hours after ligation, then every 24 hours for 4 days; cited from earlier work
[11] = system: activated murine CD4+ve T-cells; conditions: 1-500 ng/ml; cited from earlier work
ulcerative mucositis = conditions: 50-100 μg/animal/day, SC; cited from earlier work
[12] = system: murine primary macrophages; conditions: 10-100 ng/ml; cited from earlier work
[13] = system: collagen-induced arthritis; conditions: 0.3-100 μg/mouse/day, IP, 10 days; cited from earlier work
LPS-induced lung injury = conditions: 200 mg/kg, IP; cited from earlier work
active Crohn's disease = conditions: 1 mg, weekly for 12 weeks, SC; 51 patients; cited from earlier work
rheumatoid arthritis = conditions: up to 15 μg/kg weekly for 12 weeks (SC); cited from earlier work

B1: rhIL11: Recombinant human IL11 (UniProtKB:P20809, Genscript) (protein)
chain: PGPPPGPPRVSPDPRAELDSTVLLTRSLLADTRQLAAQLRDKFPADGDHNLDSLPTLAMSAGALGALQLPGVLTRLRADLLSYLRHVQWLRRAGGSSLKTLEPELGTLQARLDRLLRRLQLLMSRLALPQPPPDPPAPPLAPPSSAWGGIRAAHAILGGLHLTLDWAVRGLLLLKTRL
- actin stress fibres in hepatocytes [1]: progressively stimulated an increase in actin stress fibres
- alanine aminotransferase (ALT) in hepatocyte supernatant (hepatocyte cell death) [1]: progressive increase in alanine aminotransferase (ALT)
- hepatocyte cell death, FACS (PI+ve cells) ([2]; 24 h): dose-dependent IL11-induced hepatocyte cell death
- ERK and JNK activation, concurrent with CASP3 cleavage ([2]; time course): late (>6 h) and sustained ERK and JNK activation
- ERK and JNK signaling and hepatocyte death (human hepatocytes): stimulated ERK and JNK signaling and hepatocyte death
- GSH levels in rmIL11 stimulated mouse cells (mouse hepatocytes): clear, dose-dependent effects of rhIL11 in restoring GSH levels
- GSH depletion ([3]; dose range and time course): stimulated dose-dependent GSH depletion
- NOX4 expression ([3]; rhIL11 10 ng ml^-1): NOX4 upregulation
- hepatocyte cell death (ALT) [4]: dose-dependently (0.625 ng/ml to 20 ng/ml) caused hepatocyte cell death
- hepatic ERK and JNK phosphorylation (liver): no effect on ERK or JNK phosphorylation
- Kd (hIL11Rα): 50 nM
- Kd (IL-11Rα): ~10 nM
- protection from WI/Rp injury (mouse livers): injury protects mouse livers. In vitro, pre-treatment with rhIL11
- hepatoprotection in IRI (IRI): Hepatoprotective effects of rhIL11 in mice subjected to a single
- LPS-induced hepatic injury [5]: significant protective role in LPS-induced hepatic injury (acute
- early intestinal radiation injury [6]: The authors conclude that IL11 ameliorates early intestinal
- epithelial cell integrity during cyclophosphamide chemotherapy [7]: The authors suggest that IL11 maintains epithelial cell integrity
- recovery from chemotherapy and radiation-induced mucosal damage (small intestinal mucosa): Administration of rhIL11 (250 μg/kg) promotes recovery from
- clonogenic cells in intestinal crypts [8]: cytotoxic exposure, protects clonogenic cells in intestinal crypts
- adverse cardiac remodeling and apoptosis (heart [9]): prevents adverse cardiac remodeling and apoptosis after
- post-MI scar volume (heart [10]): then consecutively every 24 hours for 4 days reduces post-MI
- immune response of CD4+ve T-cells [11]: CD4+ve T-cells and modulates, not represses, the immune
- 5-fluorouracil-induced ulcerative mucositis (ulcerative mucositis): Administration of rhIL11 (50-100 μg/animal/day, SC) protects
- secretion of pro-inflammatory cytokines by macrophages [12]: The authors conclude that IL11 inhibits the secretion of pro-
- inflammation [13]: days) reduces inflammation in a murine model of collagen-
- LPS-induced lung injury and lethality (LPS-induced lung injury): inflammatory activity that protects against LPS-induced lung
- efficacy compared to prednisolone (active Crohn's disease): inferior as compared to prednisolone treatment.
- patients with mild adverse effect (erythema with/without induration) at the injection site (rheumatoid arthritis): with/without induration) at the injection site was seen in 60.6% of
- therapeutic benefit (rheumatoid arthritis): no therapeutic benefit
